According to patent EP4663654A1 (Hangzhou Sciwind Biosciences Co., Ltd., dated 2025):
Starred links: 1 amine or outer side, 2 acyl side, 3 side chain; linkers in the order of their positions; H or OH if unused. Non-standard residues stand in square brackets, D forms with d. *: point of attachment. C20 diacid = O=C(O)CCCCCCCCCCCCCCCCCCC(=O)*; γGlu = O=C(O)[C@H](CCC(=O)[*:2])N[*:1]; Hyp = O=C(O)[C@@H]1C[C@@H](O)CN1; AEEA = NCCOCCOCC(=O)O

Biological target: T1, human amylin receptor (AMY3) on CHO-K1/Ga15/AMY3 amylin receptor/CRE-luc cells (human, UniProt P30988 25-474; O60896 24-148)
T1 sequence (looked up) 1: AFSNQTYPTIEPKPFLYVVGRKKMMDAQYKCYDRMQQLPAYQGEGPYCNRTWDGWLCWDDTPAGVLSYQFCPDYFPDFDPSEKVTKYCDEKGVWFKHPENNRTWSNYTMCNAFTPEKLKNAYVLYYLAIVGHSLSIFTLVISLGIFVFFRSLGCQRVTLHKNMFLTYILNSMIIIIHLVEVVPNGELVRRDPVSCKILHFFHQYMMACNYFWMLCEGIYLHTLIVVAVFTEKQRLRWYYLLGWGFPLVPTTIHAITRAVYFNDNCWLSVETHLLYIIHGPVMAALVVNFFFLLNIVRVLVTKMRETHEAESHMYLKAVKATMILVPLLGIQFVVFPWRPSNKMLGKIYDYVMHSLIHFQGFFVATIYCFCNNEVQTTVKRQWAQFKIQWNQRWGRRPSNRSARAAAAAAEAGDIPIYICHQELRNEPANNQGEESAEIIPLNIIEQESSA
T1 sequence (looked up) 2: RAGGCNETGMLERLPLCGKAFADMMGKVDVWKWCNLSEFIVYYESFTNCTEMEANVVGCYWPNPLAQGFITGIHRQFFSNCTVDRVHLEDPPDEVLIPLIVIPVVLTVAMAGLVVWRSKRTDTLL
Assay: cell-based or functional assay

B1: polypeptide derivative M3 (peptide)
peptide: {C20 diacid-γGlu}-ASELSTAALGRLADFLRHFTDRDRDILPPTNVGSNTP-NH2
SMILES: CC[C@H](C)[C@H](NC(=O)[C@H](CC(=O)O)NC(=O)[C@H](CCCNC(=N)N)NC(=O)[C@H](CC(=O)O)NC(=O)[C@H](CCCNC(=N)N)NC(=O)[C@H](CC(=O)O)NC(=O)[C@@H](NC(=O)[C@H](Cc1ccccc1)NC(=O)[C@H](Cc1c[nH]cn1)NC(=O)[C@H](CCCNC(=N)N)NC(=O)[C@H](CC(C)C)NC(=O)[C@H](Cc1ccccc1)NC(=O)[C@H](CC(=O)O)NC(=O)[C@H](C)NC(=O)[C@H](CC(C)C)NC(=O)[C@H](CCCNC(=N)N)NC(=O)CNC(=O)[C@H](CC(C)C)NC(=O)[C@H](C)NC(=O)[C@H](C)NC(=O)[C@@H](NC(=O)[C@H](CO)NC(=O)[C@H](CC(C)C)NC(=O)[C@H](CCC(=O)O)NC(=O)[C@H](CO)NC(=O)[C@H](C)NC(=O)CC[C@H](NC(=O)CCCCCCCCCCCCCCCCCCC(=O)O)C(=O)O)[C@@H](C)O)[C@@H](C)O)C(=O)N[C@@H](CC(C)C)C(=O)N1CCC[C@H]1C(=O)N1CCC[C@H]1C(=O)N[C@H](C(=O)N[C@@H](CC(N)=O)C(=O)N[C@H](C(=O)NCC(=O)N[C@@H](CO)C(=O)N[C@@H](CC(N)=O)C(=O)N[C@H](C(=O)N1CCC[C@H]1C(N)=O)[C@@H](C)O)C(C)C)[C@@H](C)O
In the case of B1, the “EC50/nM, CRE-luciferase reporter in amylin receptor/CRE-luc CHO cells” value (from here on “EC50/nM … in amylin receptor/CRE-luc CHO cells”) is reported as 0.081 nM and the “Relative activity (the EC50 ratio of Cagrilintide to the compound)” value is reported as 32%.

B2: polypeptide derivative M25 (peptide)
peptide: {C20 diacid-γGlu-AEEA-AEEA-AEEA-AEEA-AEEA-AEEA}-ASQLSTAATQRLADFLRHFTDRDRDILPPTNVGSNTP-NH2
SMILES: CC[C@H](C)[C@H](NC(=O)[C@H](CC(=O)O)NC(=O)[C@H](CCCNC(=N)N)NC(=O)[C@H](CC(=O)O)NC(=O)[C@H](CCCNC(=N)N)NC(=O)[C@H](CC(=O)O)NC(=O)[C@@H](NC(=O)[C@H](Cc1ccccc1)NC(=O)[C@H](Cc1c[nH]cn1)NC(=O)[C@H](CCCNC(=N)N)NC(=O)[C@H](CC(C)C)NC(=O)[C@H](Cc1ccccc1)NC(=O)[C@H](CC(=O)O)NC(=O)[C@H](C)NC(=O)[C@H](CC(C)C)NC(=O)[C@H](CCCNC(=N)N)NC(=O)[C@H](CCC(N)=O)NC(=O)[C@@H](NC(=O)[C@H](C)NC(=O)[C@H](C)NC(=O)[C@@H](NC(=O)[C@H](CO)NC(=O)[C@H](CC(C)C)NC(=O)[C@H](CCC(N)=O)NC(=O)[C@H](CO)NC(=O)[C@H](C)NC(=O)COCCOCCNC(=O)COCCOCCNC(=O)COCCOCCNC(=O)COCCOCCNC(=O)COCCOCCNC(=O)COCCOCCNC(=O)CC[C@H](NC(=O)CCCCCCCCCCCCCCCCCCC(=O)O)C(=O)O)[C@@H](C)O)[C@@H](C)O)[C@@H](C)O)C(=O)N[C@@H](CC(C)C)C(=O)N1CCC[C@H]1C(=O)N1CCC[C@H]1C(=O)N[C@H](C(=O)N[C@@H](CC(N)=O)C(=O)N[C@H](C(=O)NCC(=O)N[C@@H](CO)C(=O)N[C@@H](CC(N)=O)C(=O)N[C@H](C(=O)N1CCC[C@H]1C(N)=O)[C@@H](C)O)C(C)C)[C@@H](C)O
B2 was tested, and the “EC50/nM … in amylin receptor/CRE-luc CHO cells” value was 0.124 nM and the “Relative activity (the EC50 ratio of Cagrilintide to the compound)” value was 25%.

B3: polypeptide derivative M4 (peptide)
peptide: {C20 diacid-γGlu}-ASQLSTAVLGRLADFLRHFTDRDRDILPPTNVGSNTP-NH2
SMILES: CC[C@H](C)[C@H](NC(=O)[C@H](CC(=O)O)NC(=O)[C@H](CCCNC(=N)N)NC(=O)[C@H](CC(=O)O)NC(=O)[C@H](CCCNC(=N)N)NC(=O)[C@H](CC(=O)O)NC(=O)[C@@H](NC(=O)[C@H](Cc1ccccc1)NC(=O)[C@H](Cc1c[nH]cn1)NC(=O)[C@H](CCCNC(=N)N)NC(=O)[C@H](CC(C)C)NC(=O)[C@H](Cc1ccccc1)NC(=O)[C@H](CC(=O)O)NC(=O)[C@H](C)NC(=O)[C@H](CC(C)C)NC(=O)[C@H](CCCNC(=N)N)NC(=O)CNC(=O)[C@H](CC(C)C)NC(=O)[C@@H](NC(=O)[C@H](C)NC(=O)[C@@H](NC(=O)[C@H](CO)NC(=O)[C@H](CC(C)C)NC(=O)[C@H](CCC(N)=O)NC(=O)[C@H](CO)NC(=O)[C@H](C)NC(=O)CC[C@H](NC(=O)CCCCCCCCCCCCCCCCCCC(=O)O)C(=O)O)[C@@H](C)O)C(C)C)[C@@H](C)O)C(=O)N[C@@H](CC(C)C)C(=O)N1CCC[C@H]1C(=O)N1CCC[C@H]1C(=O)N[C@H](C(=O)N[C@@H](CC(N)=O)C(=O)N[C@H](C(=O)NCC(=O)N[C@@H](CO)C(=O)N[C@@H](CC(N)=O)C(=O)N[C@H](C(=O)N1CCC[C@H]1C(N)=O)[C@@H](C)O)C(C)C)[C@@H](C)O
With B3 the “EC50/nM … in amylin receptor/CRE-luc CHO cells” value was 0.081 nM and the “Relative activity (the EC50 ratio of Cagrilintide to the compound)” value was 32%.

B4: polypeptide derivative M41 (peptide)
peptide: {C20 diacid-γGlu}-ASQLSTAATQRLADFLRHSSQQLKPILPPTNVGSNT[Hyp]-NH2
SMILES: CC[C@H](C)[C@H](NC(=O)[C@@H]1CCCN1C(=O)[C@H](CCCCN)NC(=O)[C@H](CC(C)C)NC(=O)[C@H](CCC(N)=O)NC(=O)[C@H](CCC(N)=O)NC(=O)[C@H](CO)NC(=O)[C@H](CO)NC(=O)[C@H](Cc1c[nH]cn1)NC(=O)[C@H](CCCNC(=N)N)NC(=O)[C@H](CC(C)C)NC(=O)[C@H](Cc1ccccc1)NC(=O)[C@H](CC(=O)O)NC(=O)[C@H](C)NC(=O)[C@H](CC(C)C)NC(=O)[C@H](CCCNC(=N)N)NC(=O)[C@H](CCC(N)=O)NC(=O)[C@@H](NC(=O)[C@H](C)NC(=O)[C@H](C)NC(=O)[C@@H](NC(=O)[C@H](CO)NC(=O)[C@H](CC(C)C)NC(=O)[C@H](CCC(N)=O)NC(=O)[C@H](CO)NC(=O)[C@H](C)NC(=O)CC[C@H](NC(=O)CCCCCCCCCCCCCCCCCCC(=O)O)C(=O)O)[C@@H](C)O)[C@@H](C)O)C(=O)N[C@@H](CC(C)C)C(=O)N1CCC[C@H]1C(=O)N1CCC[C@H]1C(=O)N[C@H](C(=O)N[C@@H](CC(N)=O)C(=O)N[C@H](C(=O)NCC(=O)N[C@@H](CO)C(=O)N[C@@H](CC(N)=O)C(=O)N[C@H](C(=O)N1C[C@H](O)C[C@H]1C(N)=O)[C@@H](C)O)C(C)C)[C@@H](C)O
With B4 the “EC50/nM … in amylin receptor/CRE-luc CHO cells” value was 0.08 nM and the “Relative activity (the EC50 ratio of Cagrilintide to the compound)” value was 113%.

B5: polypeptide derivative M42 (peptide)
peptide: {C20 diacid-γGlu}-ASQLSTAATQRLADFLRHSSEELKPILPPTNVGSNT[Hyp]-NH2
SMILES: CC[C@H](C)[C@H](NC(=O)[C@@H]1CCCN1C(=O)[C@H](CCCCN)NC(=O)[C@H](CC(C)C)NC(=O)[C@H](CCC(=O)O)NC(=O)[C@H](CCC(=O)O)NC(=O)[C@H](CO)NC(=O)[C@H](CO)NC(=O)[C@H](Cc1c[nH]cn1)NC(=O)[C@H](CCCNC(=N)N)NC(=O)[C@H](CC(C)C)NC(=O)[C@H](Cc1ccccc1)NC(=O)[C@H](CC(=O)O)NC(=O)[C@H](C)NC(=O)[C@H](CC(C)C)NC(=O)[C@H](CCCNC(=N)N)NC(=O)[C@H](CCC(N)=O)NC(=O)[C@@H](NC(=O)[C@H](C)NC(=O)[C@H](C)NC(=O)[C@@H](NC(=O)[C@H](CO)NC(=O)[C@H](CC(C)C)NC(=O)[C@H](CCC(N)=O)NC(=O)[C@H](CO)NC(=O)[C@H](C)NC(=O)CC[C@H](NC(=O)CCCCCCCCCCCCCCCCCCC(=O)O)C(=O)O)[C@@H](C)O)[C@@H](C)O)C(=O)N[C@@H](CC(C)C)C(=O)N1CCC[C@H]1C(=O)N1CCC[C@H]1C(=O)N[C@H](C(=O)N[C@@H](CC(N)=O)C(=O)N[C@H](C(=O)NCC(=O)N[C@@H](CO)C(=O)N[C@@H](CC(N)=O)C(=O)N[C@H](C(=O)N1C[C@H](O)C[C@H]1C(N)=O)[C@@H](C)O)C(C)C)[C@@H](C)O
B5 was tested, and the “EC50/nM … in amylin receptor/CRE-luc CHO cells” value was 0.28 nM and the “Relative activity (the EC50 ratio of Cagrilintide to the compound)” value was 32%.

B6: polypeptide derivative M24 (peptide)
peptide: {C20 diacid-γGlu-AEEA-AEEA-AEEA-AEEA}-ASQLSTAATQRLADFLRHFTDRDRDILPPTNVGSNTP-NH2
SMILES: CC[C@H](C)[C@H](NC(=O)[C@H](CC(=O)O)NC(=O)[C@H](CCCNC(=N)N)NC(=O)[C@H](CC(=O)O)NC(=O)[C@H](CCCNC(=N)N)NC(=O)[C@H](CC(=O)O)NC(=O)[C@@H](NC(=O)[C@H](Cc1ccccc1)NC(=O)[C@H](Cc1c[nH]cn1)NC(=O)[C@H](CCCNC(=N)N)NC(=O)[C@H](CC(C)C)NC(=O)[C@H](Cc1ccccc1)NC(=O)[C@H](CC(=O)O)NC(=O)[C@H](C)NC(=O)[C@H](CC(C)C)NC(=O)[C@H](CCCNC(=N)N)NC(=O)[C@H](CCC(N)=O)NC(=O)[C@@H](NC(=O)[C@H](C)NC(=O)[C@H](C)NC(=O)[C@@H](NC(=O)[C@H](CO)NC(=O)[C@H](CC(C)C)NC(=O)[C@H](CCC(N)=O)NC(=O)[C@H](CO)NC(=O)[C@H](C)NC(=O)COCCOCCNC(=O)COCCOCCNC(=O)COCCOCCNC(=O)COCCOCCNC(=O)CC[C@H](NC(=O)CCCCCCCCCCCCCCCCCCC(=O)O)C(=O)O)[C@@H](C)O)[C@@H](C)O)[C@@H](C)O)C(=O)N[C@@H](CC(C)C)C(=O)N1CCC[C@H]1C(=O)N1CCC[C@H]1C(=O)N[C@H](C(=O)N[C@@H](CC(N)=O)C(=O)N[C@H](C(=O)NCC(=O)N[C@@H](CO)C(=O)N[C@@H](CC(N)=O)C(=O)N[C@H](C(=O)N1CCC[C@H]1C(N)=O)[C@@H](C)O)C(C)C)[C@@H](C)O
In the case of B6, the “EC50/nM … in amylin receptor/CRE-luc CHO cells” value is reported as 0.066 nM and the “Relative activity (the EC50 ratio of Cagrilintide to the compound)” value is reported as 47%.
